Assay [1] concerns the target T1, human VEGFR2 (Homo sapiens (Human), UniProt P35968). In words: ELISA receptor binding, hVEGFR2.
The target of assay [2] is T2, murine VEGFR2 (Mus musculus (Mouse), UniProt P35918). In words: Biacore analysis of binding to murine VEGFR2. Conditions: murine antigen.
For assay [3], the system named is KDR-PAE cells. Put plainly: proliferation of KDR-PAE cells. It counts as cell-based, porcine.
The target of assay [4] is VEGFR2 on MS1 murine endothelial cells (Mus musculus (Mouse), UniProt P35918). Put plainly: binding to VEGFR2 on MS1 murine endothelial cells. The class given is cell-based.
The target of assay [5] is rat VEGFR2 (Rattus norvegicus (Rat), UniProt O08775). In words: Biacore analysis of binding to rat VEGFR2. Conditions: rat antigen. The procedure: The binding constants of Mab 147 and Mab 149 as well as the parent Mab 160 for human, murine, and rat VEGFR2 were determined by Biacore analysis (Table 4).
A general note: Surface plasmon resonance follows binding to a sensor surface in real time, without labels.

Assay [6] concerns the target binding of human VEGF with human VEGFR2 (Homo sapiens (Human), UniProt P35968). Put plainly: ELISA ligand blocking, human VEGF / human VEGFR2.
The subject of assay [7] is KDR-PAE cells. Put plainly: VEGF-induced migration of KDR-PAE cells. It counts as cell-based, porcine. Conditions: VEGF gradient. The protocol:
Migration of KDR-PAE cells was induced with a VEGF gradient (50 ng/ml VEGF (up), 100 ng/ml VEGF (low)).

Assay [8] has as its target T1, human VEGFR2. In words: Biacore analysis of binding to human VEGFR2. Conditions: human antigen.
Assay [9] addresses binding of murine VEGF with murine VEGFR2 (Mus musculus (Mouse), UniProt P35918). In words: ELISA ligand blocking, murine VEGF / murine VEGFR2. (In an ELISA, binding on a coated surface is turned into a signal by an enzyme label.)
The target in assay [10] is human VEGFR2 on HUVEC and KDR-PAE cells (Homo sapiens (Human), UniProt P35968). In words: binding to hVEGFR2 on HUVEC and KDR-PAE cells. The class given is cell-based. The text has this:
Binding of Mab 147 to hVEGFR2 and mVEGFR2 expressed on cell membranes was also confirmed. […] Mab 147 also bound to mVEGFR expressed by MS1 murine endothelial cells (FIG. 8B).

Assay [11] deals with phosphorylation of KDR and p44/42 in KDR-PAE cells. Put plainly: VEGFR2-mediated signal transduction in KDR-PAE cells. It counts as cell-based, porcine.
Assay [12] addresses T2, murine VEGFR2. Put plainly: ELISA receptor binding, mVEGFR2.
In assay [13] the test system is phosphorylation of KDR and p44/42 in HUVEC. Put plainly: VEGFR2-mediated signal transduction in HUVEC. The class given is cell-based, human.

Entries after “also recorded” stand apart in the source; their conditions may differ. Read-outs that look alike come from different tables or passages of the source.

T1 sequence (P35968 20-1356): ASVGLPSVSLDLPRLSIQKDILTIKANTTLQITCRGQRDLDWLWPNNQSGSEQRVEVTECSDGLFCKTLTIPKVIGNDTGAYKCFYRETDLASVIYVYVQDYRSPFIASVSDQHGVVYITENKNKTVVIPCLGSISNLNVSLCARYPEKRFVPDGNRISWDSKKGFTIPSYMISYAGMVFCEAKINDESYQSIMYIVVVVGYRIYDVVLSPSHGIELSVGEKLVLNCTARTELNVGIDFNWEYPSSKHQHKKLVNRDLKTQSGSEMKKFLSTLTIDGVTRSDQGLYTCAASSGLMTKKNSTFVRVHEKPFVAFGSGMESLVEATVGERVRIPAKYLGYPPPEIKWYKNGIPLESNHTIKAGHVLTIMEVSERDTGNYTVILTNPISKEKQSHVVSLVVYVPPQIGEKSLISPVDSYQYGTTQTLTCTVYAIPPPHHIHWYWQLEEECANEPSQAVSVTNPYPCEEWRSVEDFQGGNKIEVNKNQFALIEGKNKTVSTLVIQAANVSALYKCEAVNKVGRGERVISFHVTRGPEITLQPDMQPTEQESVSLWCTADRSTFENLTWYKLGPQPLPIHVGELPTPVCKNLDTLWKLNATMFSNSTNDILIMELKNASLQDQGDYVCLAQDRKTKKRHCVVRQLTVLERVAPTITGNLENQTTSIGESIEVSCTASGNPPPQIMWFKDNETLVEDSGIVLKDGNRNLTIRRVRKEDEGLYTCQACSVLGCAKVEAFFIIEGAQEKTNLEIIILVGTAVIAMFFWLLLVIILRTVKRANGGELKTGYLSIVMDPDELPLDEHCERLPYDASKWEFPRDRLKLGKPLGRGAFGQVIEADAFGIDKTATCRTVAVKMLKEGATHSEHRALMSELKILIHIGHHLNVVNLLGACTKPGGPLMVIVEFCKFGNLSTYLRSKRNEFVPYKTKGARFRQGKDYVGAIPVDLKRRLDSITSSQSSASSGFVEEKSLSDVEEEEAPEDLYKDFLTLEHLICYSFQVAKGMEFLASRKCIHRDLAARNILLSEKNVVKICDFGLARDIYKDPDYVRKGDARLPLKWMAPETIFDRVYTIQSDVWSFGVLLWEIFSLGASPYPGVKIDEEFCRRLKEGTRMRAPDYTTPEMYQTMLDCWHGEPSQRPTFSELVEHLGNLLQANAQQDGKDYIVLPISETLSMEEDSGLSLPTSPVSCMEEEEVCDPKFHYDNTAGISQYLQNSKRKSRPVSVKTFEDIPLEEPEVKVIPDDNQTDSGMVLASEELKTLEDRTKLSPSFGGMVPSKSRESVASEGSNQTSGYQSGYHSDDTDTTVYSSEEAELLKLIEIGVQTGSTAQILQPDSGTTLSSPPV
T2 sequence (P35918 20-1345): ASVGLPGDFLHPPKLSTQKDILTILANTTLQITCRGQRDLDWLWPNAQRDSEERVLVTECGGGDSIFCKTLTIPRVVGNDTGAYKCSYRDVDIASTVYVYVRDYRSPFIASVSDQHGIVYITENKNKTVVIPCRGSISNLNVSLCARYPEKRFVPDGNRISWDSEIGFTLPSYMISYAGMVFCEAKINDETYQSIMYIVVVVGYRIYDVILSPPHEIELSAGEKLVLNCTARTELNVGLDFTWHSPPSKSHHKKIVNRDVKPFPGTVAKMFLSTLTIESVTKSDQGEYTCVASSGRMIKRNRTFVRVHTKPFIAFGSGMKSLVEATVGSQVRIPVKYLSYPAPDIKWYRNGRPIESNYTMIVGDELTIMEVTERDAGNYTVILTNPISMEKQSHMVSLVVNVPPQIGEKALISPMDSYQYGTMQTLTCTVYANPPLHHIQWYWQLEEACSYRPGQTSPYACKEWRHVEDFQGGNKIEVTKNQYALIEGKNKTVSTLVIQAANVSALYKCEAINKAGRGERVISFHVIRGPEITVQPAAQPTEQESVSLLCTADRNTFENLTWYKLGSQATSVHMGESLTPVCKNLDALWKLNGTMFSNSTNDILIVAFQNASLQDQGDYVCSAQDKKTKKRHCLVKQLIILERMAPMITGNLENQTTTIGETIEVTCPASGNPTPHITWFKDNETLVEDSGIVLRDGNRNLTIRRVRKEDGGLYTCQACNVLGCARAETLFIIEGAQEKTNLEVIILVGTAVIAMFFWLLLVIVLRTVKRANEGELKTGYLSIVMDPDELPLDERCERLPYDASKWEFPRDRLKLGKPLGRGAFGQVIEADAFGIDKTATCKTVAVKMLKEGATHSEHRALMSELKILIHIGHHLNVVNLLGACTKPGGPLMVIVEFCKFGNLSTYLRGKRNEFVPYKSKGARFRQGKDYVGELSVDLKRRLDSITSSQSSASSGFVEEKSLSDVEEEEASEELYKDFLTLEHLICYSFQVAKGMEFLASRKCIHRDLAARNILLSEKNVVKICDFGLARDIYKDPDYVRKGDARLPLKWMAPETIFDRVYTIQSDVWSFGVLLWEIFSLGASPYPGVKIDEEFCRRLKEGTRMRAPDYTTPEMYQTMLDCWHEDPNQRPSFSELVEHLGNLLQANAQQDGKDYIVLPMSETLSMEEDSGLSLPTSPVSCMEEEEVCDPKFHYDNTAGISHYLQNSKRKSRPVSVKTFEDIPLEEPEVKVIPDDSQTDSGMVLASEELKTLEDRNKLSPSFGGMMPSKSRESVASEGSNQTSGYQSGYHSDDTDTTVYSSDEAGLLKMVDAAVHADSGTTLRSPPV
Chain of binding of murine VEGF with murine VEGFR2 (P35918 20-762): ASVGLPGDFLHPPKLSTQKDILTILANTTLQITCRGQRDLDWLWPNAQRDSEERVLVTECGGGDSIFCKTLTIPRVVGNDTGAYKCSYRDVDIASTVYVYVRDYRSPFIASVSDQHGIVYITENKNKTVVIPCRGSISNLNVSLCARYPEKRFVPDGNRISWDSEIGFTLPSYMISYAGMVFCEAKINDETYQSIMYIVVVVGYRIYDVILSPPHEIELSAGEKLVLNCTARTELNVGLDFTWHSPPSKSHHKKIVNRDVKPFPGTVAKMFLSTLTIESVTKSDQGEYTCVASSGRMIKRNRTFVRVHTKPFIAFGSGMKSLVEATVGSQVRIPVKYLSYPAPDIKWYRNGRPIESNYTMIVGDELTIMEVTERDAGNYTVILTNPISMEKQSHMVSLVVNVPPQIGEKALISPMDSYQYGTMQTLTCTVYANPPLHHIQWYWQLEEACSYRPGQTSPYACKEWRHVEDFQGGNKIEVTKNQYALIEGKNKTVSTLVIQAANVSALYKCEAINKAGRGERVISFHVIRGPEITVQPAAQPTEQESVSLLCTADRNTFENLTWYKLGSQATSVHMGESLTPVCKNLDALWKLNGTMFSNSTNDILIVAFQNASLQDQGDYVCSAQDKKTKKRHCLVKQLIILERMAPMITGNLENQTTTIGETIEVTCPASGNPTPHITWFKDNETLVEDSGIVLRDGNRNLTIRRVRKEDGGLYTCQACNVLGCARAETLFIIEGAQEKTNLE
Chain of rat VEGFR2 (O08775 20-1343): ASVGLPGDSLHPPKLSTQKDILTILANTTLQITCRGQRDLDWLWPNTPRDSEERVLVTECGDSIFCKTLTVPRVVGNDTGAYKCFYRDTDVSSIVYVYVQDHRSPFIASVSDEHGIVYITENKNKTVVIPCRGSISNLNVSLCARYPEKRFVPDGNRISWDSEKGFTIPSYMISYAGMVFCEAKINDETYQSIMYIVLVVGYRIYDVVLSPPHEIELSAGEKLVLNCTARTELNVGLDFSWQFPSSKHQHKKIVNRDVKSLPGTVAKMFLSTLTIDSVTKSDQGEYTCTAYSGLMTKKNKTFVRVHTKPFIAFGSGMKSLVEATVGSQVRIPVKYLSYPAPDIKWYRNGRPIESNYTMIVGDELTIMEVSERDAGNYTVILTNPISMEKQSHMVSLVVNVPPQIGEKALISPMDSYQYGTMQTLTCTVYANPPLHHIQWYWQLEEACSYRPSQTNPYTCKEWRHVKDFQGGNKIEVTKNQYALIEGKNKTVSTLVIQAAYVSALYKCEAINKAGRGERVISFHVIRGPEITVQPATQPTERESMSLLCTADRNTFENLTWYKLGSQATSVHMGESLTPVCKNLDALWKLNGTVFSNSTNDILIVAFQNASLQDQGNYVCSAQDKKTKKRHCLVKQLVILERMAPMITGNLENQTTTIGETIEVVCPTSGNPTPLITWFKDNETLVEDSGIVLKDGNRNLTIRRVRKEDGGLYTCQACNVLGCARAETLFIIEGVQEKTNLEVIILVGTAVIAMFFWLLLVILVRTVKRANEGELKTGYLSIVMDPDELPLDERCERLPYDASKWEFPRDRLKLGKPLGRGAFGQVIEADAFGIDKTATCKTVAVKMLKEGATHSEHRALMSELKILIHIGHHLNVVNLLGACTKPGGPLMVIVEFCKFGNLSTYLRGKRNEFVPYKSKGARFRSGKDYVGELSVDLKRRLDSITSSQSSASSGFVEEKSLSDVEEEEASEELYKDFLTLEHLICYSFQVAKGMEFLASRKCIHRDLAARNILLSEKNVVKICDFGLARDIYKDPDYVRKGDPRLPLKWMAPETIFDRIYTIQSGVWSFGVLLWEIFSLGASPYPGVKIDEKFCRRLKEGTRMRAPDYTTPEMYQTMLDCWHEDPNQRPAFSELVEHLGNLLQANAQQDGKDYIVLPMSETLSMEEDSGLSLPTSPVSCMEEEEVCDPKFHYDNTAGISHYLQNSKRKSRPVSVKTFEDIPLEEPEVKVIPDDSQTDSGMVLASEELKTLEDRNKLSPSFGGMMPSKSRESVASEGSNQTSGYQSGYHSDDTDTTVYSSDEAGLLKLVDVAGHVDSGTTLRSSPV
Chain of VEGFR2 on MS1 murine endothelial cells (P35918 20-1345): as the sequence (P35918 20-1345) above
Chain of human VEGFR2 on HUVEC and KDR-PAE cells (P35968 20-1356): as the sequence (P35968 20-1356) above

B1: Mab 147: affinity matured anti-VEGFR2 antibody derived from Mab 138; VH SEQ ID NO:200, VL SEQ ID NO:204 (antibody, V domains shown)
VH: EVQLLESGGGLVQPGGSLRLSCAASGFTFSWYVMGWVRQAPGKGLEWVSSIYPQGGATSYADSVKGRFTISRDNSKNTLYLQMNSLRAEDTAVYYCARGNYFDYWGQGTLVTVSS
VL: DIQMTQSPGTLSLSPGEGATLSCRASQSVSSNYFGWYQQKPGQAPRLLIYGASSRATGIPDRFSGSGSGTDFTLTISRLEPEDSAVYYCQQFDSLPLTFGGGTKVEIKR
modifications: Mutation of library member
For B1, in assay [1], the “binding to human VEGFR2” value is “binds to both hVEGFR2 and mVEGFR2 with similar affinity”. In addition, the figures for the ka in assay [2], in assay [5] and in assay [8] were 4.38E+04, 6.45E+04 and 1.13E+05, respectively. The values for the kd in assay [2], in assay [5] and in assay [8] were 1.28E−03, 8.99E−04 and 2.82E−04, respectively. For the same molecule, the “proliferation of KDR-PAE cells” value in assay [3] is reported as “inhibit”. The “binding to VEGFR2 on MS1 murine endothelial cells” value in assay [4] is on record as “binds; also recorded: bound”. In assay [6], the “blocking of binding of human VEGF with human VEGFR2” value was “blocks ligand binding”. The “VEGF-induced migration of KDR-PAE cells” value in [7] is recorded as “inhibiting”. Also, in assay [9], the “blocking of binding of murine VEGF with murine VEGFR2” value is “blocks ligand binding”. Moreover, the “binding to hVEGFR2 expressed on cell membranes” value in assay [10] was “confirmed”. Moreover, the “phosphorylation of KDR and p44/42” value in assay [11] is “inhibit”; in [11] (listed as Mab-147) it was “reduced phosphorylation”; in assay [13], “inhibit”; in [13] (listed as Mab-147), “reduced phosphorylation”. In addition, in [12], the “binding to murine VEGFR2” value is “binds to both hVEGFR2 and mVEGFR2 with similar affinity”.

Values taken from patent US10125144B2, “Rho kinase inhibitors” (Kadmon Corporation, LLC, priority 2013, dated 2018).
